Experimental data taken from article PMC11601447.
Each block holds one substance with its values, some of them ahead of it.

How the values were obtained:
[1] = target: hClpX E285A (human) (UniProt O76031); assay: negative stain EM
[2] = target: bortezomib-bound hClpP (human) (UniProt Q16740); assay: cryo-EM structure
[3] = target: hClpP^dCTE-S153A (human) (UniProt Q16740); assay: cryo-EM structure

stoichiometry N [1]: 6
Substance: hClpX E285A (from UniProt O76031 57-633) (enzyme)

stoichiometry N [2]: 14
Substance: bortezomib-bound hClpP (from UniProt Q16740 58-277) (enzyme)

stoichiometry N [3]: 14
Substance: hClpP^dCTE-S153A (from UniProt Q16740 58-277) (enzyme)
